Assay results from publication PMC10119932.

Target: Human FcRn (human) (UniProt P55899)
Test: BLI; human FcRn immobilised, antibody or ADC as analyte; performed as previously reported (refs. 35, 36); no conditions told

Chain of UniProt P55899 (P55899 24-365): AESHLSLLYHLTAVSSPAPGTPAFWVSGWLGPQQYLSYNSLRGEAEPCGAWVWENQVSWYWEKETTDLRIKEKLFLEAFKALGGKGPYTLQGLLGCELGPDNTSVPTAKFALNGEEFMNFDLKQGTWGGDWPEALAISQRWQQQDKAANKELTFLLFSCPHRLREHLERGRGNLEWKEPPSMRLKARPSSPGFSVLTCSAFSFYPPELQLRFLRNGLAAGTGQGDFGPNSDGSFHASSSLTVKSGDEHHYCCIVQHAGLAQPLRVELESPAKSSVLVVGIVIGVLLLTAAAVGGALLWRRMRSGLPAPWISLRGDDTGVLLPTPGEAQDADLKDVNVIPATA

| Substance | Kd [nM] | koff [s⁻¹] | kon [M⁻¹ s⁻¹] |
| --- | --- | --- | --- |
| Trastuzumab-K248-MMAE (5a) (antibody) | 5.6 | 0.000848 | 152000 |
| Trastuzumab-K288-MMAE (5b) (antibody) | 7.22 | 0.00383 | 530000 |
| Trastuzumab (Herceptin), human IgG1 (antibody) | 5.65 | 0.00377 | 667000 |
